{"source": "paper PMC4169324", "about": "(The FEBS journal, 2014)", "key": {"SEC": {"target": "the molecule itself", "experiment": "SEC"}, "crystal structure": {"target": "the molecule itself", "experiment": "crystal structure"}}, "data": [{"protein": "BcRsaM protein (product of bcam1869) from B. cenocepacia J2315, native (natural protein) SNAMTSPLLHPVPGPSPDGYVRLSEGALAALVLDHVASGLDPSLLAELRDNAIDARLAGYTEWHRTAGAGVAYVTVGWDWYLERATGTFVIAGGDVRSNVMAIDAKGADIGMLRTAAALAARLAALDWPAAVASALLGHNDAYHAGPTLQ", "values": [{"measurement": "stoichiometry N", "setting": "SEC", "value": 2}]}, {"protein": "SeMet-labeled BcRsaM protein from B. cenocepacia J2315 (natural protein, selenomethionine (SeMet-labeled; 70 mg/L SeMet in the culture for crystals X4)) SNAMTSPLLHPVPGPSPDGYVRLSEGALAALVLDHVASGLDPSLLAELRDNAIDARLAGYTEWHRTAGAGVAYVTVGWDWYLERATGTFVIAGGDVRSNVMAIDAKGADIGMLRTAAALAARLAALDWPAAVASALLGHNDAYHAGPTLQ", "values": [{"measurement": "binding result", "setting": "crystal structure", "value": "binds"}]}]}
